Results: patent publication US20220049017A1 (KYMAB, published 2022)

What was measured:
[1] = biological target: T1, human PCSK9 D374Y gain-of-function mutant (human, UniProt Q8NBP7 31-692); test: ProteOn SPR, captured antibody, pH 5.8;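 further: antibodies captured on a GLC chip coated with anti-human Fc, rate constants from a 1:1 Langmuir fit of the sensorgrams, Kd derived from the fitted rates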
T1 construct: It was AF647-labelled in the HepG2 cell-based assay and unlabelled in SPR; also called Human PCSK9 GOF; hPCSK9 GOF
Procedure: (§1) The SPR runs were performed using a GLC chip (Bio-Rad) immobilised with anti-human Fc antibodies. The analyte human antibodies were captured on the chip surface at 2 ug/ml. […] The chip surface was regenerated using two injections of 10 mM Glycine pH 1.5 for 160 seconds at 30 μl/min. The sensorgrams were then fitted with a 1:1 model (Langmuir kinetic model) where ka and kd are fitted and KD was calculated by the ProteOn software.

cynomolgus monkey PCSK9 [2] = biological target: T2, cynomolgus monkey PCSK9 (cynomolgus monkey, UniProt A8T662 31-692 (Macaca nemestrina entry), limits assumed); test: ProteOn SPR, captured antibody, pH 5.8;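 further: antibodies captured on a GLC chip coated with anti-human Fc, rate constants from a 1:1 Langmuir fit of the sensorgrams, Kd derived from the fitted rates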
T2 construct: also called Cyno PCSK9; cynoPCSK9
Procedure: as §1

mouse PCSK9 [3] = biological target: T3, mouse PCSK9 (mouse, UniProt Q80W65 35-694, limits assumed); test: ProteOn SPR, captured antibody, pH 5.8;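 further: antibodies captured on a GLC chip coated with anti-human Fc, rate constants from a 1:1 Langmuir fit of the sensorgrams, Kd derived from the fitted rates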
T3 construct: also called mPCSK9; PCSK9 mouse
Procedure: as §1

human PCSK9 variant a [4] = biological target: T4, human PCSK9 variant a (human, UniProt Q8NBP7 31-692); test: ProteOn SPR, captured antibody, pH 5.8;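 further: antibodies captured on a GLC chip coated with anti-human Fc, rate constants from a 1:1 Langmuir fit of the sensorgrams, Kd derived from the fitted rates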
T4 construct: also called Human PCSK9 var A; hPCSK9a
Procedure: as §1

human PCSK9 variant b [5] = biological target: T5, human PCSK9 variant b (human, UniProt Q8NBP7 31-692); test: ProteOn SPR, captured antibody, pH 5.8
T5 construct: also called Human PCSK9 var B; hPCSK9b
Procedure: as §1

human PCSK9 reference [6] = biological target: T6, human PCSK9 reference (human, UniProt Q8NBP7 31-692); test: ProteOn SPR, captured antibody, pH 5.8
Procedure: as §1

[7] = biological target: T1, human PCSK9 D374Y gain-of-function …; test: ProteOn SPR, captured antibody, pH 7.6;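 further: antibodies captured via anti-human Fc on a GLC sensor chip, PCSK9 binding sensorgrams fitted to a 1:1 Langmuir model giving on and off rates, with KD derived from them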
Procedure: as §1

cynomolgus monkey PCSK9 [8] = biological target: T2, cynomolgus monkey PCSK9; test: ProteOn SPR, captured antibody, pH 7.6;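 further: antibodies captured via anti-human Fc on a GLC sensor chip, PCSK9 binding sensorgrams fitted to a 1:1 Langmuir model giving on and off rates, with KD derived from them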
Procedure: as §1

mouse PCSK9 [9] = biological target: T3, mouse PCSK9; test: ProteOn SPR, captured antibody, pH 7.6;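 further: antibodies captured via anti-human Fc on a GLC sensor chip, PCSK9 binding sensorgrams fitted to a 1:1 Langmuir model giving on and off rates, with KD derived from them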
Procedure: as §1

human PCSK9 variant a [10] = biological target: T4, human PCSK9 variant a; test: ProteOn SPR, captured antibody, pH 7.6;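 further: antibodies captured via anti-human Fc on a GLC sensor chip, PCSK9 binding sensorgrams fitted to a 1:1 Langmuir model giving on and off rates, with KD derived from them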
Procedure: as §1

human PCSK9 variant b [11] = biological target: T5, human PCSK9 variant b; test: ProteOn SPR, captured antibody, pH 7.6
Procedure: as §1

human PCSK9 reference [12] = biological target: T6, human PCSK9 reference; test: ProteOn SPR, captured antibody, pH 7.6
Procedure: as §1

[13] = biological target: T1, human PCSK9 D374Y gain-of-function …; test: ProteOn SPR, captured antibody, pH 5.8; KD cannot be accurately determined
Procedure: as §1

human PCSK9 variant a [14] = biological target: T4, human PCSK9 variant a; test: as above
Procedure: as §1

human PCSK9 variant b [15] = biological target: T5, human PCSK9 variant b; test: as above
Procedure: as §1

human PCSK9 reference [16] = biological target: T6, human PCSK9 reference; test: as above
Procedure: as §1

[17] = biological target: T1, human PCSK9 D374Y gain-of-function …; test: ProteOn SPR, captured antibody, pH 5.8; value is the lower detection limit
Procedure: as §1

human PCSK9 variant b [18] = biological target: T5, human PCSK9 variant b; test: as above
Procedure: as §1

human PCSK9 reference [19] = biological target: T6, human PCSK9 reference; test: as above
Procedure: as §1

human PCSK9 variant a [20] = biological target: T4, human PCSK9 variant a; test: ProteOn SPR, captured antibody, pH 5.8; value is the lower detection limit; pH 5.8
Procedure: as §1

T3 sequence (Q80W65 35-694 limits assumed): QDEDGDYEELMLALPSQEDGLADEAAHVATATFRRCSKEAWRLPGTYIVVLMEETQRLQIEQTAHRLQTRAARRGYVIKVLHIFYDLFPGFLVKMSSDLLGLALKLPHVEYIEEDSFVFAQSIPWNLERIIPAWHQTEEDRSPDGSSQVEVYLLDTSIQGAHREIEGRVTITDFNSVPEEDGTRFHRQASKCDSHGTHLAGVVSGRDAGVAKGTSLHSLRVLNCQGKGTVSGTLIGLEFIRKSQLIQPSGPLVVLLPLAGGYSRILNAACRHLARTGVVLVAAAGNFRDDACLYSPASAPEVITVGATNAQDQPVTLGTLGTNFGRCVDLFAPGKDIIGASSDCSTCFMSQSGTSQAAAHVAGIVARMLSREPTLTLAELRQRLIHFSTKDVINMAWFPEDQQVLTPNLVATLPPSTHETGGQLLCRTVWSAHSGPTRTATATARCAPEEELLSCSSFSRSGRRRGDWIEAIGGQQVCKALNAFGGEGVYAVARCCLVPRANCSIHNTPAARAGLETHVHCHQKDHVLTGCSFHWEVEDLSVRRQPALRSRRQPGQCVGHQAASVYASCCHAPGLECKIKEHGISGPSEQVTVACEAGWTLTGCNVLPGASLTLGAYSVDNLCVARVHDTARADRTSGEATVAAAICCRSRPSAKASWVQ
T2 sequence (A8T662 31-692 limits assumed): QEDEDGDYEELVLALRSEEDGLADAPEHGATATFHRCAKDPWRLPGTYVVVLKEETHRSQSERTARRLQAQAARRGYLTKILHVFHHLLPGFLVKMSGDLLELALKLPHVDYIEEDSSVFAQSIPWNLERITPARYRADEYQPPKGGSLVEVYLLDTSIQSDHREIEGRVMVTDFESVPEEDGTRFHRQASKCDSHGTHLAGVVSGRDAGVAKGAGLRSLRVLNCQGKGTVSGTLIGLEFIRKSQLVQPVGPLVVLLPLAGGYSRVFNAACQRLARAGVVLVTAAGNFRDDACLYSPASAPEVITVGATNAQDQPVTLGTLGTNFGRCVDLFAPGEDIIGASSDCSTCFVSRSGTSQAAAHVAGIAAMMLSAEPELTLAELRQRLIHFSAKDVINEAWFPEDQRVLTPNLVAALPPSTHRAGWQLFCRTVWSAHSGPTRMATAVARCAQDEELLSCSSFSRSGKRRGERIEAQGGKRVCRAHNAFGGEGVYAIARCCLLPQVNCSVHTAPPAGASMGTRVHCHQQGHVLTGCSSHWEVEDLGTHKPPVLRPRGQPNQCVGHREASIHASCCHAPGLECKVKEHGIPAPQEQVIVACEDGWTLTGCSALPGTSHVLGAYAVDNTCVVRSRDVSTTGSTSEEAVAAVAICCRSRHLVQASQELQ

B1: CL-148489 (antibody, V domains shown)
VH: EVQLVESGGGLVQPGRSLRLSCTASGFTFADYVMHWVRQTPGKGLEWVSGISWNSYSINYADSVKGRFTISRDNAQNSLYLQMNSLRAEDTALYFCAKDITYDLLTGYNYNYGLDVWGQGTTVTVSS
VL: DIVMTQTPLSLSVTPGQPASISCRSSQSLLHSDGKTYLYWYLQKPGQPPQLLIYEVSNRFSGVPDRFSGSGSGTDFTLKISRVEAEDVGLYYCMQSIQLPLTFGGGTKVEIK
notes: Human antibody with a kappa light chain
kon [1]: 1.37e+06 M⁻¹ s⁻¹ | Kd (cynomolgus monkey PCSK9 [2]): 0.0924 nM | koff (cynomolgus monkey PCSK9 [2]): 0.000121 s⁻¹ | kon (cynomolgus monkey PCSK9 [2]): 1.31e+06 M⁻¹ s⁻¹ | Kd (mouse PCSK9 [3]): 0.46 nM | koff (mouse PCSK9 [3]): 0.000632 s⁻¹ | kon (mouse PCSK9 [3]): 1.38e+06 M⁻¹ s⁻¹ | kon (human PCSK9 variant a [4]): 1.25e+06 M⁻¹ s⁻¹ | kon (human PCSK9 variant b [5]): 1.54e+06 M⁻¹ s⁻¹ | kon (human PCSK9 reference [6]): 1.5e+06 M⁻¹ s⁻¹ | Kd [7]: 0.136 nM | koff [7]: 0.000129 s⁻¹ | kon [7]: 947000 M⁻¹ s⁻¹ | Kd (cynomolgus monkey PCSK9 [8]): 0.0506 nM | koff (cynomolgus monkey PCSK9 [8]): 5.73e-05 s⁻¹ | kon (cynomolgus monkey PCSK9 [8]): 1.13e+06 M⁻¹ s⁻¹ | Kd (mouse PCSK9 [9]): 2.69 nM | koff (mouse PCSK9 [9]): 0.00192 s⁻¹ | kon (mouse PCSK9 [9]): 714000 M⁻¹ s⁻¹ | Kd (human PCSK9 variant a [10]): 0.175 nM | koff (human PCSK9 variant a [10]): 0.000157 s⁻¹ | kon (human PCSK9 variant a [10]): 894000 M⁻¹ s⁻¹ | Kd (human PCSK9 variant b [11]): 0.193 nM | koff (human PCSK9 variant b [11]): 0.000164 s⁻¹ | kon (human PCSK9 variant b [11]): 848000 M⁻¹ s⁻¹ | Kd (human PCSK9 reference [12]): 0.176 nM | koff (human PCSK9 reference [12]): 0.000163 s⁻¹ | kon (human PCSK9 reference [12]): 924000 M⁻¹ s⁻¹ | Kd [13]: < 0.0073 nM | Kd (human PCSK9 variant a [14]): < 0.008 nM | Kd (human PCSK9 variant b [15]): < 0.00649 nM | Kd (human PCSK9 reference [16]): < 0.00667 nM | koff [17]: ≤ 1e-05 s⁻¹ | koff (human PCSK9 variant b [18]): ≤ 1e-05 s⁻¹ | koff (human PCSK9 reference [19]): ≤ 1e-05 s⁻¹ | koff (human PCSK9 variant a [20]): ≤ 1e-05 s⁻¹
